Reference: patent US20160311868A1

Legend:
[1] = target: TgMyoA heavy chain with C-terminal Bio-tag and FLAG-tag (TgMyoA-cBio-cFLAG) (Toxoplasma gondii) (UniProt O00934); experiment: cell-based or functional assay

Substance | speed of actin movement, in vitro motility assay (TgMyoA with TgMLC1 only) [1] [µm/s] | Km for actin, steady-state actin-activated ATPase (skeletal muscle actin)
TgMLC1, Toxoplasma gondii myosin light chain MLC1 (regulatory light chain), untagged | 1.5 | 
TgMyoA expressed with both light chains (TgMyoA heavy chain with bound TgMLC1 and TgELC1) |  | a Km for actin of 136±22 µM at 30 °C
